For the test, the target named is T1, Recombinant human KLK5 residues I67-S293 (SEQ ID NO:328) (human, UniProt Q9Y337 67-293, lysine residues methylated in the 10C5 and 9H5 complexes that gave crystals).
T1 construct: Expressed in Sf9 cells as ubiquitin fusion; ubiquitin removed with Enterokinase; also called Human KLK5 Crystal Structure Experiments
T1 sequence: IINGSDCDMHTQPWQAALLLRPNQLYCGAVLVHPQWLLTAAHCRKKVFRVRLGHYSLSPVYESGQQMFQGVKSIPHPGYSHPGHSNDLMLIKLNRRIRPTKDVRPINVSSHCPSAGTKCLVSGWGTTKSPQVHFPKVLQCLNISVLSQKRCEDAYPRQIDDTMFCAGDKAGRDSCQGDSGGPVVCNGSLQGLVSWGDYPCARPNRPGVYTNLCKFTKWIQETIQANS
The test is described as follows: crystal structure of the Fab/KLK5 complex. How it is done:
Recombinant human KLK5 residues I67-S293 (SEQ ID NO:328) was expressed in a Baculovirus expression system as a C-terminal fusion of ubiquitin with an Enterokinase cleavage site engineered between ubiquitin and KLK5. Sf9 cells were coexpressed with EndoH with 1 mg/mL of Kifunensine. Protein was purified on a HiTrap™ Heparin column. The column was washed with 25 mM TRIS pH 7.5 for 5 CV (column volumes), and then eluted with 0-750 mM NaCl over a gradient of 20 CV. Resultant protein pool was then further purified over 5200 by SEC in 25 mM Tris pH 7.5, 300 mM NaCl. The Ubiquitin was then cleaved using Enterokinase, and sample further purified by SEC again. […] Fab fragments including heavy and light chains were expressed and purified as described. See Carter et al., Biotechnology 10(2), 163-167 (1992). KLK5 was then mixed with each of the Fabs separately, 10C5, 9H5, and 3-3F5, and the complex was purified by SEC in 25 mM HEPES pH 7.2, 100 mM NaCl. […] Crystal for the 10C5 and 9H5 complexes were only obtained when the lysine residues in the protein complexes were methylated. See Walter et al., Structure, 14(11), 1617-1622 (2006).

B1: 3-3F5 Fab (Fab, V domains shown)
VH: EVQLLESGGGLVQPGGSLRLSCAVSGFSLNDYGVSWVRQAPGKGLEWVGAIGSSGVAWYANFAKGRFTISRDNSKNTLYLQMNSLRAEDTAVYYCARDRDYGYRADDATSGMDLWGRGTLVTVSS
VL: AIRMTQSPSSFSASTGDRVTITCQASESIGNALAWYQQKPGKAPKLLIYDASDLASGVPSRFSGSGSGTDFTLTISSLQPEDFATYYCQQGDSHNNVDNIFGGGTKVEIKR
notes: Fab used for crystallization with human KLK5; also called 3F5.5 Fab; Fab 3-3F5 Humanized
Consider B1, for which the buried surface area was 956 Å^2.

Values taken from patent US20200040103A1 (Genentech, published 2020).
